How the values were obtained:
[1] = molecular target: the molecule itself; assay: right angle light scattering at 350 nm
[2] = molecular target: the molecule itself; assay: right angle light scattering at 350 nm; full-length SaFtsZf (49 µM) or EcFtsZ (25 µM), 1 mM GTP with or without BeF3-, 10 mM MgCl2; MES assembly buffer, 25 °C

B1: full-length FtsZ from methicillin-resistant S. aureus Mu50/ATCC 700699 (natural protein)
chain: MLEFEQGFNHLATLKVIGVGGGGNNAVNRMIDHGMNNVEFIAINTDGQALNLSKAESKIQIGEKLTRGLGAGANPEIGKKAAEESREQIEDAIQGADMVFVTSGMGGGTGTGAAPVVAKIAKEMGALTVGVVTRPFSFEGRKRQTQAAAGVEAMKAAVDTLIVIPNDRLLDIVDKSTPMMEAFKEADNVLRQGVQGISDLIAVSGEVNLDFADVKTIMSNQGSALMGIGVSSGENRAVEAAKKAISSPLLETSIVGAQGVLMNITGGESLSLFEAQEAADIVQDAADEDVNMIFGTVINPELQDEIVVTVIATGFDDKPTSHGRKSGSTGFGTSVNTSSNATSKDESFTSNSSNAQATDSVSERTHTTKEDDIPSFIRNREERRSRRTRR
binding result [1]: binds

B2: full-length FtsZ from E. coli (natural protein, Escherichia coli, UniProt P0A9A6 1-383, looked up)
chain: MFEPMELTNDAVIKVIGVGGGGGNAVEHMVRERIEGVEFFAVNTDAQALRKTAVGQTIQIGSGITKGLGAGANPEVGRNAADEDRDALRAALEGADMVFIAAGMGGGTGTGAAPVVAEVAKDLGILTVAVVTKPFNFEGKKRMAFAEQGITELSKHVDSLITIPNDKLLKVLGRGISLLDAFGAANDVLKGAVQGIAELITRPGLMNVDFADVRTVMSEMGYAMMGSGVASGEDRAEEAAEMAISSPLLEDIDLSGARGVLVNITAGFDLRLDEFETVGNTIRAFASDNATVVIGTSLDPDMNDELRVTVVATGIGMDKRPEITLVTNKQVQQPVMDRYQQHGMAPLTQEQKPVAKVVNDNAPQTAKEPDYLDIPAFLRKQAD
notes: FtsZ of Escherichia coli, full length, wild type protein; also called EcFtsZ; source: purified as described [48]
binding result [2]: binds
